Laboratory results published in US20090228996A1, “Means and Methods for influencing Interactions Between Dc-Sign and Dc-Sign Ligands” (priority 2006, published 2009).

T1: DC-SIGN on Raji-DC-SIGN cells (Homo sapiens, UniProt Q9NNX6)
T1 construct: expressed in transfected cells; host or cells: Raji cells (Raji-DC-SIGN)
T1 sequence (Q9NNX6 1-404): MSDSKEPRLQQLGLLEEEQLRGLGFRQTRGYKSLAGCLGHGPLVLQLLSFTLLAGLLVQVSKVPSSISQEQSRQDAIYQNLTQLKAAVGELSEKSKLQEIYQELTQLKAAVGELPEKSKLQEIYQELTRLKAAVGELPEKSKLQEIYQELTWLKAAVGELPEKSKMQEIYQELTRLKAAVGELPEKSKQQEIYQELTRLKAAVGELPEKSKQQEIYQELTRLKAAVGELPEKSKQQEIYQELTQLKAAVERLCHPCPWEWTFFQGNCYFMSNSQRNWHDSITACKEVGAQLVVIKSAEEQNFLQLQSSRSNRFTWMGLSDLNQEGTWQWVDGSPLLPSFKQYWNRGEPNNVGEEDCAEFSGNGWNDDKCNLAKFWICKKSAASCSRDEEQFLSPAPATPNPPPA

T2: DC-SIGN on iDCs (Homo sapiens, UniProt Q9NNX6)
T2 construct: endogenous in cells
T2 sequence (Q9NNX6 1-404): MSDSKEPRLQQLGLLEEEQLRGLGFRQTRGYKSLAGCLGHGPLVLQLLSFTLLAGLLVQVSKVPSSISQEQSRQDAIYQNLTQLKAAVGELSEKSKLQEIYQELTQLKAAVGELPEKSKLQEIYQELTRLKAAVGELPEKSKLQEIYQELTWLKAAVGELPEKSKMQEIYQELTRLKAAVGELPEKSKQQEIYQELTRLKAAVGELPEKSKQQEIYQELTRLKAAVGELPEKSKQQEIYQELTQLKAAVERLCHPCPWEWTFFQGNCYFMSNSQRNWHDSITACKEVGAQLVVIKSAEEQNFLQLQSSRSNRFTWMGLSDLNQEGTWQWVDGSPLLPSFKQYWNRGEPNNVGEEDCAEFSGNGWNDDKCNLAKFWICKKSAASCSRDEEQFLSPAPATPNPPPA

T3: DC-SIGN-Fc (Homo sapiens, UniProt Q9NNX6)
T3 construct: the extracellular portion of DC-SIGN (amino acids 64 to 404)
T3 sequence (Q9NNX6 64-404): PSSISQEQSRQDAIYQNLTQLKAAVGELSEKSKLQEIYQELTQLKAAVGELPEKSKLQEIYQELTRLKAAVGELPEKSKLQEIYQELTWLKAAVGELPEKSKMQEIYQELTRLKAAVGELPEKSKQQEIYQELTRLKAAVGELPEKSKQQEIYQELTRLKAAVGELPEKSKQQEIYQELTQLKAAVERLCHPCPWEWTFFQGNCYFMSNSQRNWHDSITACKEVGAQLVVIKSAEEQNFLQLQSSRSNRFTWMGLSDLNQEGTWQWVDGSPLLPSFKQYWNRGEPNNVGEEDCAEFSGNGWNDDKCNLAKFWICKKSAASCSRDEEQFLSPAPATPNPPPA

T4: DC-SIGN (Homo sapiens, UniProt Q9NNX6)
T4 sequence (Q9NNX6 1-404): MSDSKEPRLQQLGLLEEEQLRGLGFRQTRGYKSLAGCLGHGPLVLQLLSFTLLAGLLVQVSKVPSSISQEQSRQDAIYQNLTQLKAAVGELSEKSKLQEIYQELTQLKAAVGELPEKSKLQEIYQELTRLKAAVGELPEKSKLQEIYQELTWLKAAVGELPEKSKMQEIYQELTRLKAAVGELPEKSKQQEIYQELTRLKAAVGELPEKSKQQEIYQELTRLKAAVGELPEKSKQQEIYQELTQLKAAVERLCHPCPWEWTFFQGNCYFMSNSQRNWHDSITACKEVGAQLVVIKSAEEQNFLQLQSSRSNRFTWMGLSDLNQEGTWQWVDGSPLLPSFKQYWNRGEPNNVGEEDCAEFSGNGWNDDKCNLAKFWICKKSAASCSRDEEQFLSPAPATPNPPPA


How the values were obtained:
[1] = target: T1, DC-SIGN on Raji-DC-SIGN cells; experiment: gp120 bead adhesion assay, Raji-DC-SIGN cells; assay type: cell-based; conditions: major milk proteins at 1/20 dilution of physiological concentration in human milk
Method: (§1) gp120 bead adhesion assay. Beads were prepared as previously described (Geijtenbeek et al, 2000 a), in short, streptavidin was covalently coupled to Carboxylate-modified TransFluoSpheres (488/645 nm, 1.0 μm; molecular probes). The steptavidin-beads were incubated with biotinylated F(ab′)2 fragment goat-anti-human IgG (6 μg/ml; Jackson Immunoresearch) and subsequently incubated overnight with gp120-Fc chimera. Fifty thousand cells, Raji-DC-SIGN cells, immature DCs or Raji-L-SIGN cells, were pre-incubated with human milk or milk compounds, AZN-D1 (Geijtenbeek et al, 2000 a), AZN-D2 (Halary et al, 2002), EGTA or mannan for 30 minutes at RT. The ligand-coated beads (20 beads/cell) were added to the pre-incubated cells and incubated for 30 minutes at 37° C. after which the cells were washed with TSM containing 0.5% BSA. After washing, the cells were resuspended in 100 μl TSM-BSA buffer and the adhesion was measured by flow cytometry (BD Biosciences).
(§2) gp120 bead adhesion assay. Beads were prepared as previously described (Geijtenbeek et al, 2000 a), in short, streptavidin was covalently coupled to Carboxylate-modified TransFluoSpheres (488/645 nm, 1.0 μm; molecular probes). The steptavidin-beads were incubated with biotinylated F(ab′)2 fragment goat-anti-human IgG (6 μg/ml; Jackson Immunoresearch) and subsequently incubated overnight with the gp120-Fc chimera. Fifty thousand cells, Raji-DC-SIGN cells or iDCs were pre-incubated with human milk, AZN-D1 (Geijtenbeek et al, 2000 a), AZN-D2 (Halary et al, 2002), EGTA or mannan for 30 minutes at RT. The ligand-coated beads (20 beads/cell) were added to the pre-incubated cells and incubated for 30 minutes at 37° C. after which the cells were washed with TSM (20 mM Tris, 150 mM NaCl, 1 mM CaCl2, 2 mM MgCl2) containing 0.5% BSA. After washing, the cells were resuspended in 100 μl TSM-BSA buffer and the adhesion was measured by flow cytometry (BD Biosciences).

DC-SIGN on iDCs = target: T2, DC-SIGN on iDCs; experiment: gp120 bead adhesion assay, immature DCs; assay type: cell-based; conditions: major milk proteins at 1/20 dilution of physiological concentration in human milk
Method: as §1, §2

DC-SIGN-Fc = target: T3, DC-SIGN-Fc; experiment: DC-SIGN-Fc binding ELISA; conditions: major milk proteins at 1/20 dilution of physiological concentration in human milk
Method: DC-SIGN-Fc binding ELISA. The DC-SIGN-Fc chimera contained the extracellular portion of DC-SIGN (amino acids 64 to 404) fused at the C-terminus to a human immunoglobulin (Ig) G1 Fc fragment and has been previously described (Geijtenbeek et al, 2002). Human milk or human milk compounds were diluted in 0.2M NaHCO3, coated on ELISA plates (maxisorb plate; Nunc) and incubated overnight at 4° C. or 2 hours at 37° C. This was followed by blocking with TSM containing 1% BSA for 30 minutes at 37° C. before addition of soluble DC-SIGN-Fc (5 μg/ml) for 2 hours at RT, the binding was determined by incubation of a peroxidase labeled anti-IgG1 antibody for 30 minutes at RT. DC-SIGN-Fc binding specificity was determined by pre-incubation of the DC-SIGN-FC with either 50 μg/ml DC-SIGN specific mouse antibody AZN-D1 (Geijtenbeek et al, 2000 a) or 10 mM EGTA. Single-cycle-replication transmission assay. The assay was performed as previously described (Groot et al, 2005). In short mDCs and iDCs were incubated in a 96-well-plate (35−50×10^3 DC/well) with human milk for 30 minutes at 37° C. before addition of the virus (5 ng p24/well), which was incubated for 2 hours at 37° C. The DCs were washed twice with PBS before addition of 50×10^3 LuSIV cells. After 24 hours, LuSIV cells were harvested and resuspended in 50 μl lysis buffer (25 mM Tris-Cl 7.8, 2 mM DTT, 2 mM CDTA, 10% glycerol, 1% Triton X100). The cells were then incubated for 45 minutes at room temperature while shaking, followed by 10 minutes centrifugation at 3200×g. The supernatant was transferred to a white-solid 96 well plate (Corning Costar), and 150 μl of lucibuffer (100 μg/ml BSA, 6.6 mM ATP, 15 mM MgSO4, 25 mM glycylglycine) was added. 100 μl of DE(−)Luciferin (Roche Diagnostics GmbH) was injected per well (0.28 mg/ml lucibuffer excluding ATP). 50×10^3 LuSIV cells grown without DC or HIV-1 were used to obtain the background luciferase value.
DC-SIGN-Fc binding ELISA. The DC-SIGN-Fc chimera contained the extracellular portion of DC-SIGN (amino acids 64 to 404) fused at the C-terminus to a human immunoglobulin (Ig) G1 Fc fragment which has been previously described (Geijtenbeek et al, 2002). Human milk or BSSL were diluted in 0.2 M NaHCO3, coated on ELISA plates (maxisorb plate; Nunc) and incubated overnight at 4° C. or 2 hours at 37° C. This was followed by blocking with TSM containing 1% BSA for 30 minutes at 37° C. before addition of soluble DC-SIGN-Fc (5 μg/ml) for 2 hours at RT, the binding was determined by incubation of a peroxidase labeled anti-IgG1 antibody for 30 minutes at RT. DC-SIGN-Fc binding specificity was determined by pre-incubation of the DC-SIGN-Fc with either 50 μg/ml DC-SIGN specific mouse antibody AZN-D1 (Geijtenbeek et al, 2000 a) or 10 mM EGTA.

DC-SIGN = target: T4, DC-SIGN; conditions: literature; cited from earlier work

Row | Molecule | gp120 binding to Raji-DC-SIGN [1] | gp120 binding to iDCs (DC-SIGN on iDCs) | DC-SIGN-Fc binding to coated milk compound (DC-SIGN-Fc) | previously shown DC-SIGN binding (DC-SIGN)
1 | human α-lactalbumin: major human milk protein (Sigma) (protein, UniProt P00709 20-142, looked up) Alpha-lactalbumin: KQFTKCELSQLLKDIDGYGGIALPELICTMFHTSGYDTQAIVENNESTEYGLFQISNKLWCKSSQVPQSRNICDISCDKFLDDDITDDIMCAKKILDIKGIDYWLAHKALCTEKLEQWLCEKL | None of the tested human milk compounds could inhibit gp120 binding | None of the tested human milk compounds could inhibit gp120 binding | showed no binding | 
2 | bovine β-casein: milk protein (NIZO Food Research) (protein, UniProt P02666 16-224, looked up) Beta-casein: RELEELNVPGEIVESLSSSEESITRINKKIEKFQSEEQQQTEDELQDKIHPFAQTQSLVYPFPGPIPNSLPQNIPPLTQTPVVVPPFLQPEVMGVSKVKEAMAPKHKEMPFPKYPVEPFTESQSLTLTDVENLHLPLPLLQSWMHQPHQPLPPTVMFPPQSVLSLSQSKVLPVPQKAVPYPQRDMPIQAFLLYQEPVLGPVRGPFPIIV | None of the tested human milk compounds could inhibit gp120 binding | None of the tested human milk compounds could inhibit gp120 binding | showed no binding | 
3 | human SLPI: human milk protein SLPI (Sigma) (protein, UniProt P03973 26-132, looked up) Antileukoproteinase: SGKSFKAGVCPPKKSAQCLRYKKPECQSDWQCPGKKRCCPDTCGIKCLDPVDTPNPTRRKPGKCPVTYGQCLMLNPPNFCEMDGQCKRDLKCCMGMCGKSCVSPVKA | None of the tested human milk compounds could inhibit gp120 binding | None of the tested human milk compounds could inhibit gp120 binding | showed no binding | 
4 | bovine lactoferrin: control protein previously shown to bind DC-SIGN (protein, UniProt P24627 20-708, looked up) Lactotransferrin: APRKNVRWCTISQPEWFKCRRWQWRMKKLGAPSITCVRRAFALECIRAIAEKKADAVTLDGGMVFEAGRDPYKLRPVAAEIYGTKESPQTHYYAVAVVKKGSNFQLDQLQGRKSCHTGLGRSAGWIIPMGILRPYLSWTESLEPLQGAVAKFFSASCVPCIDRQAYPNLCQLCKGEGENQCACSSREPYFGYSGAFKCLQDGAGDVAFVKETTVFENLPEKADRDQYELLCLNNSRAPVDAFKECHLAQVPSHAVVARSVDGKEDLIWKLLSKAQEKFGKNKSRSFQLFGSPPGQRDLLFKDSALGFLRIPSKVDSALYLGSRYLTTLKNLRETAEEVKARYTRVVWCAVGPEEQKKCQQWSQQSGQNVTCATASTTDDCIVLVLKGEADALNLDGGYIYTAGKCGLVPVLAENRKSSKHSSLDCVLRPTEGYLAVAVVKKANEGLTWNSLKDKKSCHTAVDRTAGWNIPMGLIVNQTGSCAFDEFFSQSCAPGADPKSRLCALCAGDDQGLDKCVPNSKEKYYGYTGAFRCLAEDVGDVAFVKNDTVWENTNGESTADWAKNLNREDFRLLCLDGTRKPVTEAQSCHLAVAPNHAVVSRSDRAAHVKQVLLHQQALFGKNGKNCPDKFCLFKSETKNLLFNDNTECLAKLGGRPTYEEYLGTEYVTAIANLKKCSTSPLLEACAFLTR |  |  |  | bind DC-SIGN and prevent viral transfer
5 | human lactoferrin: major human milk protein (Sigma-Aldrich) (protein, UniProt P02788 20-710, looked up) Lactotransferrin: GRRRSVQWCAVSQPEATKCFQWQRNMRKVRGPPVSCIKRDSPIQCIQAIAENRADAVTLDGGFIYEAGLAPYKLRPVAAEVYGTERQPRTHYYAVAVVKKGGSFQLNELQGLKSCHTGLRRTAGWNVPIGTLRPFLNWTGPPEPIEAAVARFFSASCVPGADKGQFPNLCRLCAGTGENKCAFSSQEPYFSYSGAFKCLRDGAGDVAFIRESTVFEDLSDEAERDEYELLCPDNTRKPVDKFKDCHLARVPSHAVVARSVNGKEDAIWNLLRQAQEKFGKDKSPKFQLFGSPSGQKDLLFKDSAIGFSRVPPRIDSGLYLGSGYFTAIQNLRKSEEEVAARRARVVWCAVGEQELRKCNQWSGLSEGSVTCSSASTTEDCIALVLKGEADAMSLDGGYVYTAGKCGLVPVLAENYKSQQSSDPDPNCVDRPVEGYLAVAVVRRSDTSLTWNSVKGKKSCHTAVDRTAGWNIPMGLLFNQTGSCKFDEYFSQSCAPGSDPRSNLCALCIGDEQGENKCVPNSNERYYGYTGAFRCLAENAGDVAFVKDVTVLQNTDGNNNEAWAKDLKLADFALLCLDGKRKPVTEARSCHLAMAPNHAVVSRMDKVERLKQVLLHQQAKFGRNGSDCPDKFCLFQSETKNLLFNDNTECLARLHGKTTYEKYLGPQYVAGITNLKKCSTSPLLEACEFLRK | None of the tested human milk compounds could inhibit gp120 binding | None of the tested human milk compounds could inhibit gp120 binding | showed no binding | 
